Test results from patent EP0607332B1.

Target: CD2 (human) (UniProt P06729)
Test: cell-based or functional assay

Chain of UniProt P06729 (P06729 25-351 limits assumed, form in doubt): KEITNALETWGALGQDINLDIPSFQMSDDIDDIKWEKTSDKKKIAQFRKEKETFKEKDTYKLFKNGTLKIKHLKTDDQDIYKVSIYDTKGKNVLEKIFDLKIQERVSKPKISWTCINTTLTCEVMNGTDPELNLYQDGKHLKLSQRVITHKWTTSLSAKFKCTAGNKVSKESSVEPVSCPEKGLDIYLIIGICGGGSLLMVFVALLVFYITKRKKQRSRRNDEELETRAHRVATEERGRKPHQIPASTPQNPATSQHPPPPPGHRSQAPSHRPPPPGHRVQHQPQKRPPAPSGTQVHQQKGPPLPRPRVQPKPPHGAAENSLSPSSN

- inhibition of allogeneic T cell activation by normal skin epidermal cells, 50 ug per ml antibody: 40%
- inhibition of autologous T cell proliferation ([3H]TdR incorporation) in response to lesional psoriatic epidermis, 50 ug/ml antibody, against isotype-matched control: 60%
Substance: anti-CD2 monoclonal antibody TS2/18
